Substitutions are numbered along the chain they refer to.
T1: hiR2-FL-N503A-T7 (human, UniProt Q6PJF5 1-856)
T1 sequence: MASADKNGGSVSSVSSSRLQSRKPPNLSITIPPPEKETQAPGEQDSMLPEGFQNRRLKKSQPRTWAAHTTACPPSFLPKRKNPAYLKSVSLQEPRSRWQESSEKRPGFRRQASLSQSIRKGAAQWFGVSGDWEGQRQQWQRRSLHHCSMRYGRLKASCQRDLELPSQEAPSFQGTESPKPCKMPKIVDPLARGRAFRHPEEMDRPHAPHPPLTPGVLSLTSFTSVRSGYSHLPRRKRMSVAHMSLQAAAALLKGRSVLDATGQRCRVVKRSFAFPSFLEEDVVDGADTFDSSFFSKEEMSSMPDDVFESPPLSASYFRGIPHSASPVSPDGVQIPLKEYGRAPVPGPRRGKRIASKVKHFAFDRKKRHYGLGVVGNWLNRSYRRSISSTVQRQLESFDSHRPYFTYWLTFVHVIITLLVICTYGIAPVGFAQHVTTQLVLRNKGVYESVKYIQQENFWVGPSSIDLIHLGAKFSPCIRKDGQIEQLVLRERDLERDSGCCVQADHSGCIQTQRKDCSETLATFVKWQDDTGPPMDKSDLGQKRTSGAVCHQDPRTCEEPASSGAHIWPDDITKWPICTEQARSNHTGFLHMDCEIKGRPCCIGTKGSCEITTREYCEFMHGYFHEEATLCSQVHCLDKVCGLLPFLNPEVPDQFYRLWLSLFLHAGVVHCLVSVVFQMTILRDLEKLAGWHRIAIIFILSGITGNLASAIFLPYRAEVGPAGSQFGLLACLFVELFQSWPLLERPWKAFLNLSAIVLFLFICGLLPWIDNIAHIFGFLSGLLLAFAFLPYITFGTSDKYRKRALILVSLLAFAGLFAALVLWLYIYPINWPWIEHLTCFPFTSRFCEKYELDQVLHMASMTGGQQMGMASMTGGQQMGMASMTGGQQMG

T2: hiR2-FL-K542A-T7 (human, UniProt Q6PJF5 1-856)
T2 sequence: T1 sequence with A503N, K542A

B1: antibody 48 (antibody, V domains shown)
VH: QVQLQQSGTELVRPGTSVKVSCKASGYAFTNYLIEWVKQRPGQGLEWIGVINPGSGFTKYNEKFKGKATLTADKSSSTVYMHLSSLTSEDSAVYFCARGLYRAMDYWGQGTSVTVSS
VL: DIQMTQSPASQSASLGESVTITCLASQTIATWLAWYQQKPGKSPQLLIYGATTLADGVPSRFSGGGSGTKFSFKISSLQAEDFVSYYCQQLYSTPYTFGGGTKLEIK
notes: mouse IgG, kappa light chain; also called clone #48; purified antibody 48
B2: antibody 50 (antibody, V domains shown)
VH: B1 VH with T9A, T16A, T30S, V79A, H82Q
VL: B1 VL with A30G, G50A, T52A, T53S, S85N, L91I
notes: mouse IgG, kappa light chain; also called clone #50; purified antibody 50
B3: antibody 16 (antibody, V domains shown)
VH: QVTLKESGPGILQPSQTLSLTCSFSGFSLSTFALGVGWIRQPSGRGLEWLAHIWWDDDKYYNPALKSRLTISKDTSKNHVFLKIANVDTADTATYYCARITTYYYGMDYWGQGTSVTVSS
VL: DIVLSQSPATLSVTPGDSVSLFCRASQSIGNHLHWYQQESHASPRLLIKYASQSISGIPSRFSGSGSGTDFTLSINSVETEDFGMYFCQQSYNWPLTFGAGTKLELK
notes: mouse IgG, kappa light chain; also called clone #16; purified antibody 16
B4: antibody 3 (antibody, V domains shown)
VH: QVTLKESGPGILQPSQTLSLTCSFSGFSLTTFAMGIGWVRQPSGKGLEWLAHIWWDGEKYNNPVLKSRLTISKDTSKNQVFLRIANVDTPDTATYYCARISSIYYIIDNWGQGTSVTVSS
VL: B3 VL with S5T, D17H, F22S, G30S, H32N, Q38K, E39K, A42E, A51V
notes: mouse IgG, kappa light chain; also called clone #3; purified antibody 3

How the values were obtained:
[1] = molecular target: T1, hiR2-FL-N503A-T7; assay: FACS on MEF-DKO cells expressing the variant, 3 µg/ml antibody
Method in brief: (§1)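 Two incubations on ice, each 1 hour: test antibody (3 μg/ml) or FACS buffer only, then PE anti-mouse F(ab′)2 at 1:100 in the dark. Centrifugation and washes used 4° C; staining quantified on a flow cytometer.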

[2] = molecular target: T2, hiR2-FL-K542A-T7; assay: as above
Method in brief: as §1

Row | Binder | loss of binding vs wild type [1] [%] | loss of binding vs wild type [2] [%]
1 | B1 | ≥ 30 | –
2 | B2 | ≥ 30 | –
3 | B3 | – | ≥ 30
4 | B4 | – | ≥ 60

Source: patent publication US20240287172A1 (SCIRHOM, published 2024)
